Several values for one entry are separate records, joined by “and”; a condition that tells them apart may be missing. Equal entries are not always repeated.

The target of test [1] is T1, human CD3 on Jurkat cells (human, UniProt P07766 23-207; P04234 22-171; P09693 23-182).
T1 construct: whole, on cells; CD3 complex as on Jurkat (Clone E6-1) cells; also called CD3 expressing cells (Jurkat)
Briefly: FACS, Jurkat cells.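 Also: flow cytometric binding of bispecific antibodies to Jurkat T cells, threefold serial dilutions incubated half an hour in the cold, EC50 taken from the fitted binding curve.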
Description: The binding of the bispecific antibodies was tested on the CA expressing human lung adenocarcinoma cell line (H1573) and the CD3 expressing immortalized T lymphocyte line (Jurkat). The steps are as follows: the cells were harvested, counted, and resuspended in FACS buffer (PBS containing 0.1% BSA) at 2×10⁶ cells/ml. 100 μl of cell suspension was incubated in a V-bottom 96-well plate at 4° C. with 3-fold serial dilutions of bispecific antibodies (20 μg/ml-0.009 μg/ml) for 30 minutes; washed twice with pre-cooled FACS buffer. […] GraphPadPrism was used to obtain the binding curve.

Test [2] has as its target T2, human CD3ε/δ (ACRO systems, CDD-H52W1) (human, UniProt P07766 23-126; P04234 22-105).
T2 construct: Bought protein; also called human CD3ϵ/CD3δ; human CD3 epsilon/delta antigen
As to the kind of experiment: BLI, antibody captured, antigen in solution.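 Also: bispecific antibodies captured on AHIC biosensors to a 1.5 nm loading signal, in PBST with 0.02% detergent.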 A general note: Biolayer interferometry detects binding as a change in optical thickness at a sensor tip.
Description: The bispecific antibodies were diluted to 5 ag/ml, and 1.5 nm protein was coupled to the surface of the AHIC sensor chip through 0.02% PBST.

B1: CEA-Knob-Fab-+Hole (107) (bispecific antibody, human IgG4 S228P, kappa, F234A L235A)
heavy: EVQLVESGGGFVQAGESLTLSCTSSTLTFTPYRMAWYRQAPGKQRDLVADISSGDGRTTNYADFAKGRFTISRDNIKNTVFLRMTNLKPEDTAVYYCNTFVSFVGIARSWGQGTQVTVSSESKYGPPCPPCPAPEAAGGPSVFLFPPKPKDTLMISRTPEVTCVVVDVSQEDPEVQFNWYVDGVEVHNAKTKPREEQFNSTYRVVSVLTVLHQDWLNGKEYKCKVSNKGLPSSIEKTISKAKGQPREPQVYTLPPCQEEMTKNQVSLWCLVKGFYPSDIAVEWESNGQPENNYKTTPPVLDSDGSFFLYSRLTVDKSRWQEGNVFSCSVMHEALHNHYTQKSLSLSLGGGGSGGGGEVKLLESGGGLVQPKGSLKLSCAASGFTFNTYAMNWVRQAPGKGLEWVARIRSKYNNYATYYADSVKDRFTISRDDSQSILYLQMNNLKTEDTAMYYCVRHGNFGNSYVSWFAYWGQGTLVTVSSASTKGPSVFPLAPCSRSTSESTAALGCLVKDYFPEPVTVSWNSGALTSGVHTFPAVLQSSGLYSLSSVVTVPSSSLGTKTYTCNVDHKPSNTKVDKRV
chain: ESKYGPPCPPCPAPEAAGGPSVFLFPPKPKDTLMISRTPEVTCVVVDVSQEDPEVQFNWYVDGVEVHNAKTKPREEQFNSTYRVVSVLTVLHQDWLNGKEYKCKVSNKGLPSSIEKTISKAKGQPREPQVCTLPPSQEEMTKNQVSLSCAVKGFYPSDIAVEWESNGQPENNYKTTPPVLDSDGSFFLVSRLTVDKSRWQEGNVFSCSVMHEALHNRFTQKSLSLSL
light: QAVVTQESALTTSPGETVTLTCRSSTGAVTTSNYANWVQEKPDHLFTGLIGGTNKRAPGVPARFSGSLIGDKAALTITGAQTEDEAIYFCALWYSNLWVFGGGTKVEIKRTVAAPSVFIFPPSDEQLKSGTASVVCLLNNFYPREAKVQWKVDNALQSGNSQESVTEQDSKDSTYSLSSTLTLSKADYEKHKVYACEVTHQGLSSPVTKSFNRGEC
notes: Anti-CD3 TA1 Fab + anti-CEA VHH C17 on human IgG4 knob-into-hole Fc
For the molecule B1, the EC50 in test [1] was 2.8 µg/mL and 21.6 nM. Also, in test [2], binding was put at a Kd of 2.23 nM, the dissociation rate constant (koff) came out at 0.000803 s⁻¹ and the kon amounted to 360000 M⁻¹ s⁻¹.

B2: Fab (Heavy)-Knob+Fab (Light)-Hole-CEA (208) (bispecific antibody, human IgG4 S228P, kappa, F234A L235A)
heavy: EVKLLESGGGLVQPKGSLKLSCAASGFTFNTYAMNWVRQAPGKGLEWVARIRSKYNNYATYYADSVKDRFTISRDDSQSILYLQMNNLKTEDTAMYYCVRHGNFGNSYVSWFAYWGQGTLVTVSSASTKGPSVFPLAPCSRSTSESTAALGCLVKDYFPEPVTVSWNSGALTSGVHTFPAVLQSSGLYSLSSVVTVPSSSLGTKTYTCNVDHKPSNTKVDKRVESKYGPPCPPCPAPEAAGGPSVFLFPPKPKDTLMISRTPEVTCVVVDVSQEDPEVQFNWYVDGVEVHNAKTKPREEQFNSTYRVVSVLTVLHQDWLNGKEYKCKVSNKGLPSSIEKTISKAKGQPREPQVYTLPPCQEEMTKNQVSLWCLVKGFYPSDIAVEWESNGQPENNYKTTPPVLDSDGSFFLYSRLTVDKSRWQEGNVFSCSVMHEALHNHYTQKSLSLSL
chain: QAVVTQESALTTSPGETVTLTCRSSTGAVTTSNYANWVQEKPDHLFTGLIGGTNKRAPGVPARFSGSLIGDKAALTITGAQTEDEAIYFCALWYSNLWVFGGGTKVEIKRTVAAPSVFIFPPSDEQLKSGTASVVCLLNNFYPREAKVQWKVDNALQSGNSQESVTEQDSKDSTYSLSSTLTLSKADYEKHKVYACEVTHQGLSSPVTKSFNRGECESKYGPPCPPCPAPEAAGGPSVFLFPPKPKDTLMISRTPEVTCVVVDVSQEDPEVQFNWYVDGVEVHNAKTKPREEQFNSTYRVVSVLTVLHQDWLNGKEYKCKVSNKGLPSSIEKTISKAKGQPREPQVCTLPPSQEEMTKNQVSLSCAVKGFYPSDIAVEWESNGQPENNYKTTPPVLDSDGSFFLVSRLTVDKSRWQEGNVFSCSVMHEALHNRFTQKSLSLSLGGGGSGGGGSEVQLVESGGGFVQAGESLTLSCTSSTLTFTPYRMAWYRQAPGKQRDLVADISSGDGRTTNYADFAKGRFTISRDNIKNTVFLRMTNLKPEDTAVYYCNTFVSFVGIARSWGQGTQVTVSS
notes: Two-chain format; human IgG4 knob-into-hole Fc
In the case of B2, the EC50 in test [1] is 0.917 µg/mL and 7.06 nM. Moreover, in test [2], the Kd came to 2.82 nM, the koff was 0.000642 s⁻¹ and the on-rate constant (kon) worked out at 228000 M⁻¹ s⁻¹.

By EC50 is commonly meant the midpoint of the concentration-response curve. A low value points to a more potent agent. For orientation: Kd means a measure of binding affinity in units of concentration. Low values mean a tighter complex, high ones a looser complex. Usually koff stands for the rate constant with which the complex falls apart. Low readings indicate slow dissociation, high ones fast dissociation. The kon is a measure of how fast the partners come together. The low end stands for slower complex formation, the high end for faster complex formation.

The record behind these values is patent publication US20240400715A1 (VIBRANT PHARMA, published 2024).
